Results taken from paper PMC3295773.

Legend:
[1] = biological target: complexin 2 (pig (endogenous in boar sperm)); test: SDS-resistant complexes on SDS-PAGE, Western blot (bands of the same size); boar sperm incubated with bicarbonate (with or without Ca2+ ionophore), lysed in 1% Triton X-100 on ice, sucrose gradient fractions 1-13; non-reducing SDS-PAGE; blots for complexin 1/2, syntaxin 3, SNAP 23, VAMP 2, syntaxin 1B, VAMP 3
[2] = biological target: complexin 2 (pig (endogenous in boar sperm)); test: SDS-resistant complexes on SDS-PAGE, Western blot (bands of the same size); membrane cavitates of bicarbonate-capacitated boar sperm pre-incubated with 0-4 mM CaCl2 and 5 uM Ca2+ ionophore at 37 C for 20 min; non-reducing conditions; blot for complexin 1/2; most complexin left the 95 kDa complex as Ca2+ rose
[3] = biological target: complexin 2 (pig (endogenous in boar sperm)); test: SDS-resistant complexes on SDS-PAGE, Western blot (bands of the same size); whole sperm lysate, remaining head fraction and mixed vesicles of boar sperm treated with bicarbonate and 5 uM Ca2+ ionophore A23187; 35 ug crude protein a lane; non-reducing (RT, no reducing agent) or reducing (100 C, 10 min, 0.1 M DTT) conditions

Measured: stoichiometry N

complexin 2 (natural protein)
2: [1] | [2] | [3]
